Data: patent US20040052794

Experiments:
[1] = target: RB18A D9 product (aa 436-1566) (Homo sapiens) (UniProt Q15648); assay: pulldown; conditions: 100 mM NaCl
[2] = tested on: luciferase; assay: pulldown; conditions: 100 mM NaCl; negative control
[3] = target: p53 wild-type (Homo sapiens) (UniProt P04637); assay: pulldown; conditions: 100 mM NaCl; positive control
[4] = target: GST-RB18A-N2 (Homo sapiens) (UniProt Q15648); conditions: strand annealing initial rate, 20 nM protein, 37 C
[5] = tested on: p53 wild-type His-tag (Homo sapiens); conditions: strand annealing initial rate, 20 nM protein, 37 C

Sequence of p53 wild-type (Homo sapiens) (P04637 whole entry): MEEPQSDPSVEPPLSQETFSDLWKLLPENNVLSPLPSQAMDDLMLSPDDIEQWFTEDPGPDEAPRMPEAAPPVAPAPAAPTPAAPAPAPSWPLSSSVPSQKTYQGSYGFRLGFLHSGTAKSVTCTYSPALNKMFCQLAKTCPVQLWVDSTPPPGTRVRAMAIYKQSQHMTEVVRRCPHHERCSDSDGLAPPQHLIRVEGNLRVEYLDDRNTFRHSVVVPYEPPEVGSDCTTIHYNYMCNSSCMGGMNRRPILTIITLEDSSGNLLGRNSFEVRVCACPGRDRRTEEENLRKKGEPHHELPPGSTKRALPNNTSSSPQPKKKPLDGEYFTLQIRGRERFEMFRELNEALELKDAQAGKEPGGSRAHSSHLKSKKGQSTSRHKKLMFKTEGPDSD
Sequence of GST-RB18A-N2 (Homo sapiens) (Q15648 1249-1581): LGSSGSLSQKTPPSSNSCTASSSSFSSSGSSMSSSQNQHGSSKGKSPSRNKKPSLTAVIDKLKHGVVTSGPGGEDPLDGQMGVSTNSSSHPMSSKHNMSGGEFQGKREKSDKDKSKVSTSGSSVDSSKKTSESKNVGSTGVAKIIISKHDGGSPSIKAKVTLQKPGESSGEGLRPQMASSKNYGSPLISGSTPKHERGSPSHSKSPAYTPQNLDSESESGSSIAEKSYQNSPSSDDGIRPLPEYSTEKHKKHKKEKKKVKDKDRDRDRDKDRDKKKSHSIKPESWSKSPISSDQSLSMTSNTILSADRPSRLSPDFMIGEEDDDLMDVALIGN
Sequence of RB18A D9 product (aa 436-1566) (Homo sapiens) (Q15648 other isoform, or with tags, fused parts or gaps): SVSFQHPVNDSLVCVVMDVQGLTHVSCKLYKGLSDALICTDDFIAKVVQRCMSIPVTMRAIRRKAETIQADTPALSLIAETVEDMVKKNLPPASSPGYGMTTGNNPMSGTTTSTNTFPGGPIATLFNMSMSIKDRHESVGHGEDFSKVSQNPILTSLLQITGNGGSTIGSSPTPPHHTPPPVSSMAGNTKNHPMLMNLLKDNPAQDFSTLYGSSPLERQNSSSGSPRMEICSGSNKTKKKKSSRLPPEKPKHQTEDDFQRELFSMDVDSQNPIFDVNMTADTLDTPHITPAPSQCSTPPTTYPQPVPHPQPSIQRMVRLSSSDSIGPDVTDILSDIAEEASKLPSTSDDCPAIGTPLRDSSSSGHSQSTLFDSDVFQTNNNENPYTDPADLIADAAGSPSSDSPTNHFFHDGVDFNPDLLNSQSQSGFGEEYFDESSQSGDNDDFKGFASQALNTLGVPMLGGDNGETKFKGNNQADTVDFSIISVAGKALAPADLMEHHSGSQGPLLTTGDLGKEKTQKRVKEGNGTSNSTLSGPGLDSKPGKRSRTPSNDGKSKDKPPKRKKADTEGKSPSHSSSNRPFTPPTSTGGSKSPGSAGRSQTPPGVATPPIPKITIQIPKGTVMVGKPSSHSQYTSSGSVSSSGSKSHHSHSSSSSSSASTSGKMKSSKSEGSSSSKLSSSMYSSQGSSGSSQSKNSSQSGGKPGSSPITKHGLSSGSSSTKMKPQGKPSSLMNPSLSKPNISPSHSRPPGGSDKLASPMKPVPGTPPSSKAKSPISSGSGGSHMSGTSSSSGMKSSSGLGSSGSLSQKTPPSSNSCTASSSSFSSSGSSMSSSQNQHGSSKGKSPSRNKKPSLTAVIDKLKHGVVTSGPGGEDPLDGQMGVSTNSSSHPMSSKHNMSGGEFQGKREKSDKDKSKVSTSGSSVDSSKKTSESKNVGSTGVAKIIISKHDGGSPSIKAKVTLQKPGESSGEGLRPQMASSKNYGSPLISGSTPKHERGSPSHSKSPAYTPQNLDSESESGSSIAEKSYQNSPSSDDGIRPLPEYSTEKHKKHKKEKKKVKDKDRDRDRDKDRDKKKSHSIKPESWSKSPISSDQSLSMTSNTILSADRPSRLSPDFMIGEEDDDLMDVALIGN

Substance	binding (% of input retained) [1]	binding (% of input retained) [2]	binding (% of input retained) [3]	activity [4] [%/min]	activity [5] [%/min]
double-stranded DNA-cellulose	20	< 0.1	20	–	–
phiX174 HaeIII 194 bp fragment, heat denatured	–	–	–	14	5.9
